Reference: patent US20210388087A1 (Chugai, published 2021)
Substitutions are numbered along the chain they refer to. Names may count otherwise.

B1: CE115HA000 D101R one-arm antibody (antibody, human IgG1, kappa, L234A L235A, N297A, name in Kabat numbering)
heavy: QVQLVESGGGVVQPGRSLRLSCAASGFTFSNAWMHWVRQAPGKGLEWVAQIKAKSNNYATYYAESVKGRFTISRDDSKNSLYLQMNSLKTEDTAVYYCRYVHYGAYYGVRAWGQGTTVTVSSASTKGPSVFPLAPSSKSTSGGTAALGCLVKDYFPEPVTVSWNSGALTSGVHTFPAVLQSSGLYSLSSVVTVPSSSLGTQTYICNVNHKPSNTKVDKKVEPKSCDKTHTCPPCPAPEAAGGPSVFLFPPKPKDTLMISRTPEVTCVVVDVSHEDPEVKFNWYVDGVEVHNAKTKPREEQYASTYRVVSVLTVLHQDWLNGKEYKCKVSNKALPAPIEKTISKAKGQPREPQVYTLPPSRCELTKNQVSLSCAVKGFYPSDIAVEWESNGQPENNYKTTPPVLDSDGSFFLVSKLTVDKSRWQQGNVFSCSVMHEALHNHYTQKSLSLSPDYKDDDDK
chain: EPKSSDKTHTCPPCPAPELLGGPSVFLFPPKPKDTLMISRTPEVTCVVVDVSHEDPEVKFNWYVDGVEVHNAKTKPREEQYNSTYRVVSVLTVLHQDWLNGKEYKCKVSNKALPAPIEKTISKAKGQPREPQVCTLPPSRDELTKNQVSLWCLVKGFYPSDIAVEWESNGQPENNYKTTPPVLDSDGSFFLYSKLTVDKSRWQQGNVFSCSVMHEALHNRYTQKSLSLSP
light: DIVMTQSPLSLPVTPGEPASISCRSSQSLVHSNRNTYLHWYQQKPGQAPRLLIYKVSNRFSGVPDRFSGSGSGTDFTLKISRVEAEDVGVYYCGQGTQVPYTFGQGTKLEIKRTVAAPSVFIFPPSDEQLKSGTASVVCLLNNFYPREAKVQWKVDNALQSGNSQESVTEQDSKDSTYSLSSTLTLSKADYEKHKVYACEVTHQGLSSPVTKSFNRGEC
B2: CE115HA000 D101S one-arm antibody (antibody, human IgG1, kappa, L234A L235A, N297A, name in Kabat numbering)
heavy: B1 heavy with R110S
chain: B1 chain
light: B1 light
B3: CE115HA000 D101T one-arm antibody (antibody, human IgG1, kappa, L234A L235A, N297A, name in Kabat numbering)
heavy: B1 heavy with R110T
chain: B1 chain
light: B1 light
B4: CE115HA000 D101V one-arm antibody (antibody, human IgG1, kappa, L234A L235A, N297A, name in Kabat numbering)
heavy: B1 heavy with R110V
chain: B1 chain
light: B1 light
B5: CE115HA000 D101Y one-arm antibody (antibody, human IgG1, kappa, L234A L235A, N297A, name in Kabat numbering)
heavy: B1 heavy with R110Y
chain: B1 chain
light: B1 light
B6: CE115HA000 E61A one-arm antibody (antibody, human IgG1, kappa, L234A L235A, N297A, name in Kabat numbering)
heavy: B1 heavy with E64A, R110D
chain: B1 chain
light: B1 light
B7: CE115HA000 E61D one-arm antibody (antibody, human IgG1, kappa, L234A L235A, N297A, name in Kabat numbering)
heavy: B1 heavy with E64D, R110D
chain: B1 chain
light: B1 light
B8: CE115HA000 E61P one-arm antibody (antibody, human IgG1, kappa, L234A L235A, N297A, name in Kabat numbering)
heavy: B1 heavy with E64P, R110D
chain: B1 chain
light: B1 light
B9: CE115HA000 E61Q one-arm antibody (antibody, human IgG1, kappa, L234A L235A, N297A, name in Kabat numbering)
heavy: B1 heavy with E64Q, R110D
chain: B1 chain
light: B1 light
B10: CE115HA000 F29V one-arm antibody (antibody, human IgG1, kappa, L234A L235A, N297A, name in Kabat numbering)
heavy: B1 heavy with F29V, R110D
chain: B1 chain
light: B1 light
B11: CE115HA000 G65D one-arm antibody (antibody, human IgG1, kappa, L234A L235A, N297A, name in Kabat numbering)
heavy: B1 heavy with G68D, R110D
chain: B1 chain
light: B1 light
B12: CE115HA000 G65E one-arm antibody (antibody, human IgG1, kappa, L234A L235A, N297A, name in Kabat numbering)
heavy: B1 heavy with G68E, R110D
chain: B1 chain
light: B1 light
B13: CE115HA000 G98A one-arm antibody (antibody, human IgG1, kappa, L234A L235A, N297A, name in Kabat numbering)
heavy: B1 heavy with G104A, R110D
chain: B1 chain
light: B1 light
B14: CE115HA000 G98D one-arm antibody (antibody, human IgG1, kappa, L234A L235A, N297A, name in Kabat numbering)
heavy: B1 heavy with G104D, R110D
chain: B1 chain
light: B1 light
B15: CE115HA000 G98H one-arm antibody (antibody, human IgG1, kappa, L234A L235A, N297A, name in Kabat numbering)
heavy: B1 heavy with G104H, R110D
chain: B1 chain
light: B1 light
B16: CE115HA000 G98K one-arm antibody (antibody, human IgG1, kappa, L234A L235A, N297A, name in Kabat numbering)
heavy: B1 heavy with G104K, R110D
chain: B1 chain
light: B1 light
B17: CE115HA000 G98P one-arm antibody (antibody, human IgG1, kappa, L234A L235A, N297A, name in Kabat numbering)
heavy: B1 heavy with G104P, R110D
chain: B1 chain
light: B1 light
B18: CE115HA000 G98Q one-arm antibody (antibody, human IgG1, kappa, L234A L235A, N297A, name in Kabat numbering)
heavy: B1 heavy with G104Q, R110D
chain: B1 chain
light: B1 light
B19: CE115HA000 G98R one-arm antibody (antibody, human IgG1, kappa, L234A L235A, N297A, name in Kabat numbering)
heavy: B1 heavy with G104R, R110D
chain: B1 chain
light: B1 light
B20: CE115HA000 G98S one-arm antibody (antibody, human IgG1, kappa, L234A L235A, N297A, name in Kabat numbering)
heavy: B1 heavy with G104S, R110D
chain: B1 chain
light: B1 light
B21: CE115HA000 G98T one-arm antibody (antibody, human IgG1, kappa, L234A L235A, N297A, name in Kabat numbering)
heavy: B1 heavy with G104T, R110D
chain: B1 chain
light: B1 light
B22: CE115HA000 G98Y one-arm antibody (antibody, human IgG1, kappa, L234A L235A, N297A, name in Kabat numbering)
heavy: B1 heavy with G104Y, R110D
chain: B1 chain
light: B1 light
B23: CE115HA000 G100bD one-arm antibody (antibody, human IgG1, kappa, L234A L235A, N297A, name in Kabat numbering)
heavy: B1 heavy with G108D, R110D
chain: B1 chain
light: B1 light
B24: CE115HA000 G100bE one-arm antibody (antibody, human IgG1, kappa, L234A L235A, N297A, name in Kabat numbering)
heavy: B1 heavy with G108E, R110D
chain: B1 chain
light: B1 light
B25: CE115HA000 G100bF one-arm antibody (antibody, human IgG1, kappa, L234A L235A, N297A, name in Kabat numbering)
heavy: B1 heavy with G108F, R110D
chain: B1 chain
light: B1 light
B26: CE115HA000 G100bL one-arm antibody (antibody, human IgG1, kappa, L234A L235A, N297A, name in Kabat numbering)
heavy: B1 heavy with G108L, R110D
chain: B1 chain
light: B1 light
B27: CE115HA000 G100bS one-arm antibody (antibody, human IgG1, kappa, L234A L235A, N297A, name in Kabat numbering)
heavy: B1 heavy with G108S, R110D
chain: B1 chain
light: B1 light
B28: CE115HA000 G100bY one-arm antibody (antibody, human IgG1, kappa, L234A L235A, N297A, name in Kabat numbering)
heavy: B1 heavy with G108Y, R110D
chain: B1 chain
light: B1 light
B29: CE115HA000 H35D one-arm antibody (antibody, human IgG1, kappa, L234A L235A, N297A, name in Kabat numbering)
heavy: B1 heavy with H35D, R110D
chain: B1 chain
light: B1 light
B30: CE115HA000 H35E one-arm antibody (antibody, human IgG1, kappa, L234A L235A, N297A, name in Kabat numbering)
heavy: B1 heavy with H35E, R110D
chain: B1 chain
light: B1 light
B31: CE115HA000 H35F one-arm antibody (antibody, human IgG1, kappa, L234A L235A, N297A, name in Kabat numbering)
heavy: B1 heavy with H35F, R110D
chain: B1 chain
light: B1 light
B32: CE115HA000 H35G one-arm antibody (antibody, human IgG1, kappa, L234A L235A, N297A, name in Kabat numbering)
heavy: B1 heavy with H35G, R110D
chain: B1 chain
light: B1 light
B33: CE115HA000 H35I one-arm antibody (antibody, human IgG1, kappa, L234A L235A, N297A, name in Kabat numbering)
heavy: B1 heavy with H35I, R110D
chain: B1 chain
light: B1 light

What follows are binders tested against T1, CD3 epsilon homodimer protein (UniProt P07766 23-126) (assay: SPR (Biacore T200), CD3 epsilon homodimer on CM4 chip, one-arm antibody as analyte, 25 C;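 further: homodimer attached to the sensor surface via amine coupling, HBS-EP+ used as running buffer during binding runs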).
T1 construct: immobilized on Sensor chip CM4 by amine coupling; also called CD3 (CD3 epsilon)
T1 sequence (P07766 23-126): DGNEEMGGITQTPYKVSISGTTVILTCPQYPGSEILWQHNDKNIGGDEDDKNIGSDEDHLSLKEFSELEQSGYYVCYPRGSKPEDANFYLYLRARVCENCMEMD

In order of falling “ratio of amounts bound (altered form / CE115HA000)” value:
1. B19  2.96
2. B16  2.83
3. B22  2.22
4. B15  1.58
5. B4  1.33
6. B18  1.22
7. B2  1.16
8. B13  1.1
9. B6  1.09
10. B8  1.07
11. B9  1.07
12. B21  1.05
13. B17  1.02
14. B20  1.01
15. B7  0.91
16. B3  0.79
17. B12  0.78
18. B11  0.76
19. B27  0.52
20. B5  0.49
21. B10  0.36
22. B25  0.3
23. B23  0.27
24. B26  0.27
25. B14  0.26
26. B24  0.26
27. B1  0.24
28. B28  0.23
29. B32  0.22
30. B31  0.21
31. B29  0.2
32. B30  0.19
33. B33  0.12
